# Test results: the RNAGym collection of RNA variant scans (doi:10.7554/elife.80360)
# B1: Twister Ribozyme (parent)
# chain: AACACUGCCAAUGCCGGUCCCAAGCCCGGAUAAAAGUGGAGGGGGCGG
# Variants of: B1
# Experiment: self-cleavage, relative activity (ratio to wild type); higher = more cleavage; co-transcriptional
row,Variant,self-cleavage
1,G7U C19G,0.0806
2,G7U C19U,0.0568
3,G7U C20A,0.0332
4,G7U C21G,0.0215
5,G7U C21U,0.0705
6,G7U C25A,0.224
7,G7U C25U,0.302
8,G7U C26A,0.0629
9,G7U C26G,0.0462
10,G7U C27G,0.0829
11,G7U C46A,0.0526
12,G7U G13A,0.0636
13,G7U G13C,0.0504
14,G7U G16A,0.0674
15,G7U G16U,0.0559
16,G7U G17U,0.0401
17,G7U G24C,0.0734
18,G7U G24U,0.0676
19,G7U G28A,0.0571
20,G7U G29A,0.0635
21,G7U G29C,0.0397
22,G7U G38C,0.0818
23,G7U G38U,0.103
24,G7U G39A,0.0425

row,Variant,self-cleavage
1,G7U G39C,0.0429
2,G7U G41C,0.111
3,G7U G42U,0.0886
4,G7U G43A,0.0755
5,G7U G43C,0.0634
6,G7U G44A,0.19
7,G7U G44U,0.0819
8,G7U G45A,0.0748
9,G7U G45U,0.087
10,G7U G47C,0.0954
11,G7U G47U,0.0775
12,G7U G48A,0.078
13,G7U U12A,0.0775
14,G7U U12C,0.0693
15,G7U U12G,0.208
16,G7U U31A,0.133
17,G7U U31G,0.131
18,G7U U37A,0.0497
19,C8A,0.61
20,C8A A10C,0.594
21,C8A A10G,0.734
22,C8A A11C,0.514
23,C8A A11G,0.588
24,C8A A11U,0.7

row,Variant,self-cleavage
1,C8A A22U,0.127
2,C8A A30G,0.567
3,C8A A32C,0.42
4,C8A A32G,0.331
5,C8A A33G,0.228
6,C8A A33U,0.28
7,C8A A34C,0.189
8,C8A A35C,0.405
9,C8A A35G,0.226
10,C8A A35U,0.477
11,C8A C15G,0.0688
12,C8A C15U,0.365
13,C8A C19A,0.0947
14,C8A C19U,0.107
15,C8A C20G,0.0882
16,C8A C21U,0.107
17,C8A C25G,0.0894
18,C8A C25U,0.125
19,C8A C26U,0.098
20,C8A C27U,0.101
21,C8A C46A,0.167
22,C8A C46G,0.353
23,C8A G13A,0.359
24,C8A G13U,0.261

row,Variant,self-cleavage
1,C8A G16U,0.144
2,C8A G24C,0.31
3,C8A G24U,0.841
4,C8A G28C,0.159
5,C8A G28U,0.22
6,C8A G36A,0.101
7,C8A G36C,0.145
8,C8A G38U,0.169
9,C8A G39A,0.154
10,C8A G39C,0.148
11,C8A G41A,0.175
12,C8A G43A,0.177
13,C8A G43U,0.119
14,C8A G44A,0.555
15,C8A G47A,0.26
16,C8A G47C,0.169
17,C8A G47U,0.156
18,C8A U12A,0.475
19,C8A U18C,0.0479
20,C8A U31G,0.57
21,C8A U37C,0.144
22,C8A U37G,0.3
23,C8G,0.558
24,C8G A10U,0.429

row,Variant,self-cleavage
1,C8G A11G,0.392
2,C8G A22G,0.0585
3,C8G A22U,0.157
4,C8G A23G,0.0516
5,C8G A23U,0.103
6,C8G A32C,0.323
7,C8G A32G,0.275
8,C8G A32U,0.322
9,C8G A33C,0.203
10,C8G A34C,0.121
11,C8G A34G,0.276
12,C8G A34U,0.553
13,C8G A40C,0.157
14,C8G A40U,0.0905
15,C8G C9G,0.107
16,C8G C9U,0.0635
17,C8G C14A,0.495
18,C8G C14G,0.0524
19,C8G C15A,0.0877
20,C8G C15U,0.534
21,C8G C19A,0.0465
22,C8G C19G,0.0626
23,C8G C20A,0.11
24,C8G C20G,0.0475

row,Variant,self-cleavage
1,C8G C21G,0.0605
2,C8G C25A,0.0886
3,C8G C25G,0.0929
4,C8G C26A,0.0716
5,C8G C26U,0.0555
6,C8G C27G,0.0686
7,C8G C46U,0.424
8,C8G G13U,0.194
9,C8G G16U,0.108
10,C8G G17A,0.0824
11,C8G G17C,0.07
12,C8G G17U,0.0532
13,C8G G24A,0.203
14,C8G G24C,0.993
15,C8G G28A,0.0928
16,C8G G29A,0.3
17,C8G G29C,0.077
18,C8G G29U,0.156
19,C8G G36C,0.119
20,C8G G38C,0.145
21,C8G G38U,0.158
22,C8G G39A,0.0973
23,C8G G39C,0.135
24,C8G G41A,0.179

row,Variant,self-cleavage
1,C8G G41C,0.122
2,C8G G42A,0.131
3,C8G G42C,0.221
4,C8G G44C,0.177
5,C8G G47A,0.208
6,C8G G47C,0.186
7,C8G G47U,0.142
8,C8G G48C,0.272
9,C8G G48U,0.263
10,C8G U12A,0.609
11,C8G U12C,0.435
12,C8G U18C,0.0751
13,C8G U18G,0.0605
14,C8G U31A,0.472
15,C8G U31C,0.497
16,C8G U37A,0.115
17,C8G U37C,0.131
18,C8G U37G,0.108
19,C8U,0.777
20,C8U A10C,0.755
21,C8U A10G,0.655
22,C8U A10U,0.582
23,C8U A11G,0.551
